In WO2015087187A1 (dated 2015):
Numbering of substitutions follows the chain as printed.

T1: recombinant human SOST (rhSOST) (human, UniProt Q9BQB4 24-213)
T1 construct: Treated as one molecule; also called recombinant human SOST protein; human sclerostin
T1 sequence: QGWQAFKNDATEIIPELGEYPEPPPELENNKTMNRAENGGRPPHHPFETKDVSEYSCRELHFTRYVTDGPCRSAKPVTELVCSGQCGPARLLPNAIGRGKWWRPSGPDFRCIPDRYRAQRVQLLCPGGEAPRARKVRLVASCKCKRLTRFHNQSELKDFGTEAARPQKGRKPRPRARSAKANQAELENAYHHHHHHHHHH

B1: DM1 (antibody, V domains shown)
VH: EVQLLESGGGLVQPGGSLRLSCAASGHTFSDYWMQWVRQAPGKGLEWVGAIYPGDGDTRYNQKFKDRFTISRDNSKNTLYLQMNSLRAEDTAVYYCARSMDYWGQGTLVTVSS
VL: DIVMTQSPDSLAVSLGERATINCRASKTVDSYGNSFMHWFQQKPGQPPKLLIHHSSNLESGVPDRFSGSGSGTDFTLTISSLQAEDVAVYYCLQTIEHPYTFGQGTKLEIK
notes: also called mH10/mL4
B2: DM17 (antibody, V domains shown)
VH: B1 VH with S30T, V48I
VL: B1 VL with H98D, P99S
notes: also called wt/mL6
B3: DM15 (antibody, V domains shown)
VH: B1 VH with S30T, V48I
VL: B1 VL
notes: also called wt/mL4
B4: DM8 (antibody, V domains shown)
VH: B1 VH with H27F
VL: B1 VL with F40Y, H53Y, H98F
notes: also called mH11/mL17
B5: DM14 (antibody, V domains shown)
VH: B1 VH with S30T, V48I
VL: B1 VL with F40Y, H53Y, H98D
notes: also called wt/mL3
B6: DM3 (antibody, V domains shown)
VH: B1 VH
VL: B1 VL with F40Y, H53Y
notes: also called mH10/mL15
B7: DM5 (antibody, V domains shown)
VH: B1 VH
VL: B1 VL with H53Y, H98F
notes: also called mH10/mL16
B8: DM13 (antibody, V domains shown)
VH: B1 VH with S30T, V48I
VL: B1 VL with H53Y, H98D
notes: also called wt/mL2
B9: DM9 (antibody, V domains shown)
VH: B1 VH
VL: B1 VL with N34S, S35N, F40Y, H53Y
notes: also called mH10/mL18
B10: DM7 (antibody, V domains shown)
VH: B1 VH with H27F
VL: B1 VL with H53Y
notes: also called mH11/mL14
B11: DM2 (antibody, V domains shown)
VH: B1 VH
VL: B1 VL with H53Y
notes: also called mH10/mL14
B12: DM11 (antibody, V domains shown)
VH: B1 VH with S30T, V48I
VL: B1 VL with H98D
notes: also called wt/wt
B13: DM16 (antibody, V domains shown)
VH: B1 VH with S30T, V48I
VL: B1 VL with H98D, P99H
notes: also called wt/mL5
B14: DM12 (antibody, V domains shown)
VH: B1 VH with S30T, V48I
VL: B1 VL with F40Y, H98D
notes: also called wt/mL1
B15: DM6 (antibody, V domains shown)
VH: B1 VH
VL: B1 VL with F40Y, H53Y, H98F
notes: also called mH10/mL17

Biological target: T1, recombinant human SOST (rhSOST)
Test: SPR Biacore T200, IgG captured via anti-human Fc, rhSOST analyte, 37 C

| Kd [nM] | koff [s⁻¹] | kon [M⁻¹ s⁻¹] | Binder |
| --- | --- | --- | --- |
| 0.566 | 0.000741 | 1.31e+06 | B1 |
| 0.044 | 0.000207 | 4.7e+06 | B2 |
| 0.08 | 0.000297 | 3.72e+06 | B3 |
| 2.93 | 0.007 | 2.39e+06 | B4 |
| 0.016 | 8.31e-05 | 5.22e+06 | B5 |
| 1.84 | 0.00285 | 1.55e+06 | B6 |
| 0.193 | 0.000754 | 3.91e+06 | B7 |
| < 0.0016 | < 2.8e-05 | 1.72e+07 | B8 |
| 2.32 | 0.00434 | 1.87e+06 | B9 |
| 0.966 | 0.00402 | 4.16e+06 | B10 |
| 0.321 | 0.000797 | 2.48e+06 | B11 |
| < 0.0016 | < 2.8e-05 | 1.7e+07 | B12 |
| 0.207 | 0.000817 | 3.94e+06 | B13 |
| 0.009 | 5.62e-05 | 6.55e+06 | B14 |
| 1.18 | 0.00251 | 2.12e+06 | B15 |
